Experimental data: patent US20260275312, “CRISPR NUCLEASE POLYPEPTIDES AND GENE EDITING SYSTEMS COMPRISING SUCH” (ARBOR BIOTECHNOLOGIES, INC., published 2026)

How the values were obtained:
[1] = biological target: T1, Nuclease H L323R (synthetic construct, L323R); assay: cell_activity; HEK293T; PAM AAC; settings: tags: N-term SV40 NLS, XTEN linker + C-term nucleoplasmin NLS
T1 chain: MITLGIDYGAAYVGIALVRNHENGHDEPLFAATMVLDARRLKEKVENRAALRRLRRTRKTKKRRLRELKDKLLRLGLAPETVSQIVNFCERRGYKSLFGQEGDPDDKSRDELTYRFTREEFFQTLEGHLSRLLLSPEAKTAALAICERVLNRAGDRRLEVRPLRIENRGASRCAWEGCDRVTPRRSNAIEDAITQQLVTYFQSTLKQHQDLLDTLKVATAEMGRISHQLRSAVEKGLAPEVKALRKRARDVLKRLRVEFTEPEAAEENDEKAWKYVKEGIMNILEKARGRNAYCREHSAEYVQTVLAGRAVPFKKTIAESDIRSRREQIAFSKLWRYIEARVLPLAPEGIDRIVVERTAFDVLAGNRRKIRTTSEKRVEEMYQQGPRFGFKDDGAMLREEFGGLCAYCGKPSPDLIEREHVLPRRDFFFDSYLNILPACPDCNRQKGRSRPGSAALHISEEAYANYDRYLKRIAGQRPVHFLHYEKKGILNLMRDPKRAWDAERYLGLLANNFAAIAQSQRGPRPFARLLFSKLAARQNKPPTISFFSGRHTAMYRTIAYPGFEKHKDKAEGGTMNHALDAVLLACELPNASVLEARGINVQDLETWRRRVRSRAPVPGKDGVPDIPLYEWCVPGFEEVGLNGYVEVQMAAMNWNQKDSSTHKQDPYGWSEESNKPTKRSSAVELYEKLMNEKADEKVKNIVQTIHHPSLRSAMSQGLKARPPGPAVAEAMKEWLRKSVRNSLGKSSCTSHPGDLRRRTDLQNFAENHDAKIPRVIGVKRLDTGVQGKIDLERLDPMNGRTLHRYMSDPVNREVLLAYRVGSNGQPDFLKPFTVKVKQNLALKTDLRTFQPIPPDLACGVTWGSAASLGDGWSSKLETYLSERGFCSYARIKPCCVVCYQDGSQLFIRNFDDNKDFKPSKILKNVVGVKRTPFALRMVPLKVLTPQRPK
Procedure: (§1) HEK293T cells were transfected with plasmids expressing the Nuclease H polypeptides and the gRNAs provided herein following the methods provided in Example 1 above. Gene editing efficiencies were determined by NGS following the methods also provided in Example 1. The NGS results were analyzed also following the methods provided in Example 1 above.
(§2) Indel ratios, referring to the percentage of NGS reads comprising indels, were calculated for the reference and for each variant. The indel ratios used for fold change calculations were the average of two technical replicates. To then calculate fold change in indel ratios, the indel ratio for each variant was divided by the indel ratio for the reference. […] Numbering is relative to the reference nuclease of SEQ ID NO: 64 (i.e., without an NLS).

[2] = biological target: T2, Nuclease H D912R (synthetic construct, D912R); assay: cell_activity; HEK293T; PAM AAC; settings: tags: N-term SV40 NLS, XTEN linker + C-term nucleoplasmin NLS
T2 chain: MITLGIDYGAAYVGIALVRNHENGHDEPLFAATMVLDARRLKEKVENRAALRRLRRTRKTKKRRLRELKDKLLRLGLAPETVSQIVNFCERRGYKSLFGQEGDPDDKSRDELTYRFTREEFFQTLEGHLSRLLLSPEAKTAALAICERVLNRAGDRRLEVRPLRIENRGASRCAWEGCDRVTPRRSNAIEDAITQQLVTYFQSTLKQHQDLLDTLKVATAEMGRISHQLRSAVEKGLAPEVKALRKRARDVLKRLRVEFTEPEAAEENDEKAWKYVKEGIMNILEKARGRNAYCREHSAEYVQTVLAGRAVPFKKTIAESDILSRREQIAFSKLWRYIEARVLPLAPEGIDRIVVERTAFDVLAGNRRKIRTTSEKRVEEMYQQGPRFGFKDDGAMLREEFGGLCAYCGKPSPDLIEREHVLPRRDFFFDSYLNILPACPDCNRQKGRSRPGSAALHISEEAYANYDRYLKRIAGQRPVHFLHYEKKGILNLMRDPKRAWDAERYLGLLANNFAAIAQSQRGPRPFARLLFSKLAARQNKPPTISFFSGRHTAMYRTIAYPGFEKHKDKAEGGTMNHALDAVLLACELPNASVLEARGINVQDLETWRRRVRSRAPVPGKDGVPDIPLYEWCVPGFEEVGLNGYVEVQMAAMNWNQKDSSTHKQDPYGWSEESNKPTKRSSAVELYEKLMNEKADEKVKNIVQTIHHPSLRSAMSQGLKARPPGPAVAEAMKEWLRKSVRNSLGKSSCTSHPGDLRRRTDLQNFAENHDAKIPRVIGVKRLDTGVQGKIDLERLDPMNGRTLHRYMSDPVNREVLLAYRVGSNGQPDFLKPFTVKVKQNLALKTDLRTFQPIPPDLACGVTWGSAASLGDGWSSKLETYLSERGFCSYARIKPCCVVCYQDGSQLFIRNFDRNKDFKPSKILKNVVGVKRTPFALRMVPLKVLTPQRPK
Procedure: as §1, §2

B1: H AAVS1-T5 RNA guide ; AAVS1-T5 target (H) (ssRNA ; dsDNA)
RNA: GGCUAUAAUCCAUGCUGACCGUUUCAAUCAACCUGAUCUCUCUGCUUGCGCUGCAGGCUUCAUAAGAUCAGUAGGUUGAAAAGAGCAUCCGUCCGACAUGCACUCCGGGAUGGGGCAGUCCCGGCUCUUGCGGUUCCCGAUGCAGUUAUGUGUCCGCGGAACACGGUGUCGGACACGUCGCAAGACAGGAUGUGAGCCCAUUAUCCACAUUAGGAUCAAUGUACGCAUGAGCAGUCCGCAAUGCCGGGGACGCU
DNA 1: GGCTATAATCCATGCTGACC
DNA 2: GGTCAGCATGGATTATAGCC
fold change in indel ratio vs reference [1]: 5.91 fold indel vs reference | fold change in indel ratio vs reference [2]: 4.21 fold indel vs reference
